From patent publication US20260256941A1

Molecular target: PD-1 receptor on the surface of T cells (human) (UniProt Q15116)
Assay: cell-based or functional assay

UniProt Q15116, sequence (Q15116 25-288): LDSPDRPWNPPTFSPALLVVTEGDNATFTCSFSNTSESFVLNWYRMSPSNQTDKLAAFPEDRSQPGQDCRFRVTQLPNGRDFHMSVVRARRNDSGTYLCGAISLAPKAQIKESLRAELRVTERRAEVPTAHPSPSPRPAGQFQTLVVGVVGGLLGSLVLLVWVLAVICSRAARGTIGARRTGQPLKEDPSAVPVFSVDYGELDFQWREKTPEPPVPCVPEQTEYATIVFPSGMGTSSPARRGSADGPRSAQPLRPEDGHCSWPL

Q: For “PD-L1 traditional exosome (PD-L1 displayed by traditional engineering methods) (ligand)”, which percentage of activated (CD8+CD25+) T cells, flow cytometry; PD-L1 traditional exosome; unmodified exosome 34.1% is on record?
A: Its percentage of activated (CD8+CD25+) T cells, flow cytometry; PD-L1 traditional exosome; unmodified exosome 34.1% is 22.5%.
